Patent US20200354425A1 (DONG-A ST CO., LTD., published 2020)
Positions count from the first letter of the chain named. Where two headings read alike, the source gives them in different places. *1 amine or outer side, *2 acyl side, *3 side chain or, on linkers, in order; H or OH if unused. Bridges are numbered along the chain shown (N, C = ends). Where no end group is shown, it is not given here. Side-chain parts run from the residue outwards. [ ]: non-standard residue; d: D form. The star is where a group is joined. γGlu = O=C(O)[C@H](CCC(=O)[*:2])N[*:1]; Stearoyl = CCCCCCCCCCCCCCCCCC(=O)*; AEEA = NCCOCCOCC(=O)O; Aib = CC(C)(N)C(=O)O

B1: Compound 4 (peptide)
peptide: HSQGTFTSDXSKYLDSRRAQDFVQWLMNTK
modifications: Z at position 10 = Lys([(2-(2-(2-aminoethoxy)ethoxy)acetoyl)2]-[gamma glutamicacid]-[octadecanoyl]); C-terminal amide (-NH2)
B2: Compound 42 (peptide)
peptide: B1 peptide with S2X, S16X
modifications: not fully specified; Aib at positions 2 and 16; Z at position 10 = Lys([(2-(2-(2-aminoethoxy)ethoxy)acetoyl)2]-[gammaglutamicacid]-[15-carboxypeptadecanoyl]) (so in the source)
B3: Compound 43 (peptide)
peptide: B1 peptide with S2X, S16X
modifications: Aib at positions 2 and 16; Z at position 10 = Lys([(2-(2-(2-aminoethoxy)ethoxy)acetoyl)2]-[gammaglutamicacid]-[17-carboxyheptadecanoyl])
B4: Compound 44 (peptide)
peptide: B1 peptide with S2X, S16X
modifications: not fully specified; Aib at positions 2 and 16; Z at position 10 = Lys([(2-(2-(2-aminoethoxy)ethoxy)acetoyl)2]-[gammaglutamicacid]-[19-carboxypeptadecanoyl]) (so in the source)
B5: Compound 47 (peptide)
peptide: H-H[Aib]QGTFTSDYSKYLDEKRAKEFVQWLMNTKC-OH
modifications: lactam 16-20
SMILES: CSCC[C@H](NC(=O)[C@H](CC(C)C)NC(=O)[C@H](Cc1c[nH]c2ccccc12)NC(=O)[C@H](CCC(N)=O)NC(=O)[C@@H](NC(=O)[C@H](Cc1ccccc1)NC(=O)[C@H](CCC(=O)O)NC(=O)[C@@H]1CCCCNC(=O)CC[C@H](NC(=O)[C@H](CC(=O)O)NC(=O)[C@H](CC(C)C)NC(=O)[C@H](Cc2ccc(O)cc2)NC(=O)[C@H](CCCCN)NC(=O)[C@H](CO)NC(=O)[C@H](Cc2ccc(O)cc2)NC(=O)[C@H](CC(=O)O)NC(=O)[C@H](CO)NC(=O)[C@@H](NC(=O)[C@H](Cc2ccccc2)NC(=O)[C@@H](NC(=O)CNC(=O)[C@H](CCC(N)=O)NC(=O)C(C)(C)NC(=O)[C@@H](N)Cc2c[nH]cn2)[C@@H](C)O)[C@@H](C)O)C(=O)N[C@@H](CCCCN)C(=O)N[C@@H](CCCNC(=N)N)C(=O)N[C@@H](C)C(=O)N1)C(C)C)C(=O)N[C@@H](CC(N)=O)C(=O)N[C@H](C(=O)N[C@@H](CCCCN)C(=O)N[C@@H](CS)C(=O)O)[C@@H](C)O
B6: Compound 6 (peptide)
peptide: B1 peptide with S2X, S16X
modifications: Aib at positions 2 and 16; Z at position 10 = Lys([(2-(2-(2-aminoethoxy)ethoxy)acetoyl)2]-[gamma glutamicacid]-[octadecanoyl]); C-terminal amide (-NH2)
B7: Compound 7 (peptide)
peptide: HXQGTFTSDXSKYLDXRRAQDFVQWLMNTKRNRNNIA
modifications: Aib at positions 2 and 16; Z at position 10 = Lys([(2-(2-(2-aminoethoxy)ethoxy)acetoyl)2]-[gamma glutamicacid]-[octadecanoyl])
B8: Compound 10 (peptide)
peptide: B1 peptide with S2X, S16X
modifications: Aib at positions 2 and 16; Z at position 10 = Lys([(2-(2-(2-aminoethoxy)ethoxy)acetoyl)3]-[gamma glutamicacid]-[octadecanoyl])
B9: Compound 11 (peptide)
peptide: B1 peptide with S2X, S16X
modifications: Aib at positions 2 and 16; Z at position 10 = Lys([Gly-Gly-Ser-Gly-Ser-Gly]-[gamma glutamic acid]-[octadecanoyl])
B10: Compound 14 (peptide)
peptide: B1 peptide with S2X, S16E, Q20K
modifications: Aib at position 2; Z at position 10 = Lys([(2-(2-(2-aminoethoxy)ethoxy)acetoyl)2]-[gamma glutamicacid]-[octadecanoyl]); lactam ring formed between E and K (positions 16 and 20)
B11: Compound 17 (peptide)
peptide: B1 peptide with S2X, S16X
modifications: Aib at positions 2 and 16; Z at position 10 = Lys([(2-(2-(2-aminoethoxy)ethoxy)acetoyl)]-[gamma glutamicacid]-[octadecanoyl])
B12: Compound 19 (peptide)
peptide: B1 peptide with S2X, S16E, Q20K
modifications: Aib at position 2; Z at position 10 = Lys([(2-(2-(2-aminoethoxy)ethoxy)acetoyl)2]-[gamma glutamicacid]-[octadecanoyl]); lactam ring formed between E and K (positions 16 and 20); C-terminal amide (-NH2)
B13: Compound 20 (peptide)
peptide: B1 peptide with S2X, S16E, Q20K
modifications: Aib at position 2; Z at position 10 = Lys([(2-(2-(2-aminoethoxy)ethoxy)acetoyl)3]-[gamma glutamicacid]-[octadecanoyl]); lactam ring formed between E and K (positions 16 and 20)
B14: Compound 23 (peptide)
peptide: B1 peptide with S2X, S16E, Q20E
modifications: Aib at position 2; Z at position 10 = Lys([(2-(2-(2-aminoethoxy)ethoxy)acetoyl)2]-[gamma glutamicacid]-[octadecanoyl]); a ring formed between E and E (positions 16 and 20) via 1,4-piperazinyl cross-link
B15: Compound 25 (peptide)
peptide: B1 peptide with S2X, S16E, Q20K
modifications: Aib at position 2; Z at position 10 = Lys([(2-(2-(2-aminoethoxy)ethoxy)acetoyl)4]-[gamma glutamicacid]-[octadecanoyl]); lactam ring formed between E and K (positions 16 and 20)
B16: Compound 29 (peptide)
peptide: B1 peptide with S2X, S16E, Q20E
modifications: Aib at position 2; Z at position 10 = Lys([(2-(2-(2-aminoethoxy)ethoxy)acetoyl)2]-[gamma glutamicacid]-[octadecanoyl]); a ring formed between E and E (positions 16 and 20) via 1,4-phenylenediamino cross-link
B17: Compound 30 (peptide)
peptide: B1 peptide with S2X, S16E, Q20E
modifications: Aib at position 2; Z at position 10 = Lys([(2-(2-(2-aminoethoxy)ethoxy)acetoyl)2]-[gamma glutamicacid]-[octadecanoyl]); a ring formed between E and E (positions 16 and 20) via 1,2-ethylenediamino cross-link
B18: Compound 33 (peptide)
peptide: B1 peptide with S2X, S16E, Q20K
modifications: Aib at position 2; Z at position 10 = Lys([(2-(2-(2-aminoethoxy)ethoxy)acetoyl)2]-[gamma glutamicacid]-[octadecanoyl]); a ring formed between E and K (positions 16 and 20) via 1-aminocyclohexan-4-carbonyl cross-link
B19: Compound 3 (peptide)
peptide: B1 peptide with S2X, S16X
modifications: Aib at positions 2 and 16; Z at position 10 = Lys([(2-(2-(2-aminoethoxy)ethoxy)acetoyl)2]-[gamma glutamicacid]-[octadecanoyl])
B20: Compound 34 (peptide)
peptide: B1 peptide with S2X, S16E, Q20K
modifications: not fully specified; Aib at position 2; Z at position 10 = Lys([(2-(2-(2-aminoethoxy)ethoxy)acetoyl)2]-[gamma glutamicacid]-[octadecanoyl]); a ring formed between E and K (positions 16 and 20) via 4-aminobenzoyl cross-link
B21: Compound 35 (peptide)
peptide: B1 peptide with S2X, S16E, Q20K
modifications: not fully specified; Aib at position 2; Z at position 10 = Lys([(2-(2-(2-aminoethoxy)ethoxy)acetoyl)2]-[gamma glutamicacid]-[octadecanoyl]); a ring formed between E and K (positions 16 and 20) via glycine cross-link
B22: Compound 36 (peptide)
peptide: B1 peptide with S2X, S16E, Q20K
modifications: not fully specified; Aib at position 2; Z at position 10 = Lys([(2-(2-(2-aminoethoxy)ethoxy)acetoyl)2]-[gamma glutamicacid]-[octadecanoyl]); a ring formed between E and K (positions 16 and 20) via leucine cross-link
B23: Compound 37 (peptide)
peptide: H-H[Aib]QGTFTSDK([AEEA-AEEA-γGlu-Stearoyl])SKYLDDRRAKDFVQWLMNTK-OH
modifications: bridge 16-20; not fully specified (bridges); printed as H-HAibQGTFTSDZSKYLDDRRAKDFVQWLMNTK-OH
B24: Compound 38 (peptide)
peptide: H-H[Aib]QGTFTSDK([AEEA-AEEA-γGlu-Stearoyl])SKYLDDRRAKDFVQWLMNTK-OH
modifications: bridge 16-20; not fully specified (bridges); printed as H-HAibQGTFTSDZSKYLDDRRAKDFVQWLMNTK-OH

What was measured:
[1] = molecular target: T1, Human GLP-1 receptor (human, UniProt P43220)
[2] = molecular target: T2, Human glucagon receptor (human, UniProt P47871)
[3] = molecular target: T1, Human GLP-1 receptor; test: cell-based or functional assay
[4] = molecular target: T2, Human glucagon receptor; test: cell-based or functional assay

| Molecule | EC50(pM), CRE-driven luciferase activity [1] | EC50(pM), CRE-driven luciferase activity [2] | EC50(pM), CRE-driven luciferase activity [3] | EC50(pM), CRE-driven luciferase activity [4] |
| --- | --- | --- | --- | --- |
| MEDI0382 (peptide) | < 10 pM | 10 to 100 pM | – | – |
| B1 | – | – | < 10 pM | – |
| H[Aib]QGTFTSDKSKYLD[Aib]RRAQDFVQWLMNTK [Compound 39] | – | – | > 1000 pM | > 1000 pM |
| H[Aib]QGTFTSK([AEEA-AEEA-γGlu-Stearoyl])YSKYLD[Aib]RRAQDFVQWLMNTK [Compound 40] | – | – | – | > 1000 pM |
| B2 | – | – | – | > 1000 pM |
| B3 | – | – | > 1000 pM | > 1000 pM |
| B4 | – | – | – | > 1000 pM |
| B5 | – | – | < 10 pM | – |
| B6 | – | – | < 10 pM | < 10 pM |
| B7 | – | – | < 10 pM | < 10 pM |
| B8 | – | – | < 10 pM | < 10 pM |
| B9 | – | – | < 10 pM | – |
| H[Aib]QGTFTSDK([AEEA-AEEA-γGlu-Stearoyl])SKYLD[Aib]RRAQDFVQWLLRAK [Compound 12] | – | – | < 10 pM | < 10 pM |
| B10 | – | – | < 10 pM | < 10 pM |
| H[Aib]QGTFTSDYSKYLDK([AEEA-AEEA-γGlu-Stearoyl])RRAQDFVQWLMNTK [Compound 15] | – | – | < 10 pM | < 10 pM |
| H[Aib]QGTFTSDYSKYLD[Aib]RRAK([AEEA-AEEA-γGlu-Stearoyl])DFVQWLMNTK [Compound 16] | – | – | < 10 pM | < 10 pM |
| B11 | – | – | < 10 pM | < 10 pM |
| B12 | – | – | < 10 pM | < 10 pM |
| B13 | – | – | < 10 pM | < 10 pM |

| Molecule | EC50(pM), CRE-driven luciferase activity [1] | EC50(pM), CRE-driven luciferase activity [2] | EC50(pM), CRE-driven luciferase activity [3] | EC50(pM), CRE-driven luciferase activity [4] |
| --- | --- | --- | --- | --- |
| H[Aib]QGTFTSDK([AEEA-AEEA-γGlu-Stearoyl])SKYLDKRRAEDFVQWLMNTK (lactam 16-20) [Compound 21] | – | – | < 10 pM | < 10 pM |
| H[Aib]QGTFTSDK([AEEA-AEEA-γGlu-Stearoyl])SKYLDCRRACDFVQWLMNTK (linker 16-20 via 1,3‑phenyhenedimethyl) [Compound 22] | – | – | < 10 pM | < 10 pM |
| B14 | – | – | < 10 pM | < 10 pM |
| H[Aib]QGTFTSDK([AEEA-AEEA-γGlu-Stearoyl])SKYLDSRRAQDFVQWLMNTK [Compound 2] | – | – | < 10 pM | < 10 pM |
| B15 | – | – | < 10 pM | < 10 pM |
| H[Aib]QGTFTSDK([AEEA-AEEA-γGlu-Stearoyl])SKYLDDRRAKDFVQWLMNTK (lactam 16-20) [Compound 26] | – | – | < 10 pM | < 10 pM |
| H[Aib]QGTFTSDK([AEEA-AEEA-γGlu-Stearoyl])SKYLDKRRADDFVQWLMNTK (lactam 16-20) [Compound 27] | – | – | < 10 pM | < 10 pM |
| B16 | – | – | < 10 pM | < 10 pM |
| B17 | – | – | < 10 pM | < 10 pM |
| H[Aib]QGTFTSDK([AEEA-AEEA-γGlu-Stearoyl])SKYLDKRRAKDFVQWLMNTK (linker 16-20 via 1,4‑phenylenebiscarbconyl) [Compound 31] | – | – | < 10 pM | < 10 pM |
| H[Aib]QGTFTSDK([AEEA-AEEA-γGlu-Stearoyl])SKYLDKRRAEDFVQWLMNTK (linker 16-20 via 4‑carbonylpiperidin‑1‑yl) [Compound 32] | – | – | < 10 pM | < 10 pM |
| B18 | – | – | < 10 pM | < 10 pM |
| B19 | – | – | < 10 pM | < 10 pM |
| B20 | – | – | < 10 pM | < 10 pM |
| B21 | – | – | < 10 pM | < 10 pM |
| B22 | – | – | < 10 pM | < 10 pM |
| B23 | – | – | < 10 pM | < 10 pM |
| B24 | – | – | < 10 pM | < 10 pM |
